Data from patent US20250250335A1 (SHENGHE CHINA BIOPHARMACEUTICAL, published 2025).
Where two headings read alike, the source gives them in different places. Values belong to the binder of their own block, whether it stands above or below them.

Experiments:
[1] = target: T1, human CEACAM5-his (ACRO CE5-H5226) (human, UniProt P06731 35-685); assay: ELISA on coated human CEACAM5, OD450
T1 construct: Bought protein; not shown: His tag
T1 sequence (looked up): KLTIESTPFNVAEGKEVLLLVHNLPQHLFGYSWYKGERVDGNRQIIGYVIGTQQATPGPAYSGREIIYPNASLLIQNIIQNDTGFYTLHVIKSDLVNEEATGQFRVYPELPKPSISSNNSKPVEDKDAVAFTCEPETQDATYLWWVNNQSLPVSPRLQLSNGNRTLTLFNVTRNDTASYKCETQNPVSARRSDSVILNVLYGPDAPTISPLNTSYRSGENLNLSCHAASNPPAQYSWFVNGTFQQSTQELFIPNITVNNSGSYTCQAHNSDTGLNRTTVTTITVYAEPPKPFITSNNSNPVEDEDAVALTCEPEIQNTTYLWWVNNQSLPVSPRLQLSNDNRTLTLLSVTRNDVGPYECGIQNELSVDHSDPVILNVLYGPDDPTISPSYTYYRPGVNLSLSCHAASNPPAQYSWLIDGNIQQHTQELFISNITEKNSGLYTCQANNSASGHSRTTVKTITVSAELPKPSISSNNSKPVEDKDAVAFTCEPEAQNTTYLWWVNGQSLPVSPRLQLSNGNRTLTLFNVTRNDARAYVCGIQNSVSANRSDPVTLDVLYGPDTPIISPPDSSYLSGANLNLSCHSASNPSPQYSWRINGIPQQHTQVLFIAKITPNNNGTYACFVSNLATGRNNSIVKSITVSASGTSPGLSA
Experimental: (§1) The binding activity of the antibodies to human CEACAM5, human CEACAM6, and human CEACAM6 (AB) proteins was detected by ELISA. The plate coated with proteins was incubated at 4° C. overnight, and the 96-well ELISA plate blocked with 2% PBS-BSA was added with the antibody to be detected and incubated at 37° C. for 1 h. After washing 3 times with PBS containing 0.05% Tween, the absorbance value of each well was read at wavelength 450 nm with the gradient-diluted mouse-derived candidate antibody as the primary antibody and anti-mouse-IgG-FC-HRP as the secondary antibody, and the absorbance value of each well was read at wavelength 450 nm after the TMB color development.

[2] = target: T2, Human-CEACAM6 (AB)-His (human, UniProt P40199 145-314); assay: ELISA on coated human CEACAM6 (AB), OD450
T2 construct: Made in house, purified on a nickel column
T2 sequence (P40199 other isoform, or with tags, fused parts or gaps limits assumed): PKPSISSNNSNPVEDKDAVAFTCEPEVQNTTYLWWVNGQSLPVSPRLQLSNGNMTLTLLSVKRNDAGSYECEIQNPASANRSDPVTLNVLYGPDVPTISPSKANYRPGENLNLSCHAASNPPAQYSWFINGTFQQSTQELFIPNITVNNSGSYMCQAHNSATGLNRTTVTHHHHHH
Summary of the method: (§2)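 Plates coated overnight at 4 °C with antigen and blocked with 2% BSA in PBS received gradient-diluted mouse candidate antibodies for 1 h at 37 °C. Binding was detected with anti-mouse IgG Fc-HRP and TMB, read as OD450.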

[3] = target: T3, CEACAM5 on the surface of the tumor cells (HPAFII cells) (UniProt P06731 35-685); assay: flow cytometry on HPAFII cells (Mean-FITC); the cells carry CEACAM5 and CEACAM6, signal not divided between the two
T3 construct: whole, on cells
T3 sequence (looked up): T1 sequence (looked up)
Experimental: (§3) The antibody to be tested was taken as the initial concentration of 200 nM and diluted 5-fold with 6 gradients. The HPAFII cells (From USTC […] FOR ADVANCED STUDIES) in the incubator were taken out, and the cell suspension was transferred to a 15 mL centrifuge tube, centrifuged, and counted by resuspension in PBS. A blank control group (Blank), a negative control group (NC), an experimental group, a positive control group and the irrelevant antibody group were kept. […] The cell suspension was spread in a 96-well plate according to about 3×10⁵ cells/well. Centrifugation (1000 rpm, 5 min) was performed, followed by washing with PBS, re-centrifugation, and repeated twice to remove media residues. The supernatant was discarded, 100 μL of primary antibody solution and irrelevant antibody solution were added to the experimental group and irrelevant antibody group, respectively, and the cells were resuspended and incubated at room temperature for 1 h. The blank group, and the negative control group were incubated with an equal amount of PBS.
(§4) After 1 h, PBS was added to wash twice. After the supernatant was discarded, 100 μL of fluorescent secondary antibody dilution (Mouse-derived secondary antibody from Abcam ab6785) was added to each sample group, except for the blank group which was added with 100 μL of PBS. After incubation at room temperature and protected from light for 0.5 h, centrifugation was performed and PBS added to wash the samples twice. After the supernatant was discarded, 120 μL of PBS was added to resuspend and sequentially flow cytometry was performed to detect the mean fluorescence intensity. The concentration of the antibody was logarithmically taken as the horizontal coordinate, and the Sigmoidaldose-response (VariableSlope) method (GraphPadPrism Software, GraphPadSoftware, San Diego, California) was chosen to perform a nonlinear regression to obtain the binding activity curves of the antibody on HPAFII cells.

[4] = target: T4, CEACAM6 on the surface of the tumor cells (HPAFII cells) (UniProt P40199 35-320); assay: as above
T4 construct: whole, on cells
T4 sequence (looked up): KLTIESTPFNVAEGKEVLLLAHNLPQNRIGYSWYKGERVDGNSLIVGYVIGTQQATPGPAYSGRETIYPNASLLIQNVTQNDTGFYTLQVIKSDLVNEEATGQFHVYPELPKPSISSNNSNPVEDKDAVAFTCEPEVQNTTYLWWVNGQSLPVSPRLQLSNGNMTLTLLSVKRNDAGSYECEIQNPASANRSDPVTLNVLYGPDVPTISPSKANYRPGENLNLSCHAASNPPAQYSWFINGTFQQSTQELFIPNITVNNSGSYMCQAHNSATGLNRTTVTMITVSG
Experimental: as §3, §4

[5] = target: T5, human CEACAM6-his (ACRO CE6-H5223) (human, UniProt P40199 35-320); assay: ELISA on coated human CEACAM6, OD450
T5 construct: Bought protein; not shown: His tag
T5 sequence (looked up): T4 sequence (looked up)
Experimental: as §1

[6] = target: T6, mouse CEACAM5 (mouse, UniProt Q3UKK2 35-947, limits assumed); assay: ELISA on coated protein, OD450
T6 sequence (looked up): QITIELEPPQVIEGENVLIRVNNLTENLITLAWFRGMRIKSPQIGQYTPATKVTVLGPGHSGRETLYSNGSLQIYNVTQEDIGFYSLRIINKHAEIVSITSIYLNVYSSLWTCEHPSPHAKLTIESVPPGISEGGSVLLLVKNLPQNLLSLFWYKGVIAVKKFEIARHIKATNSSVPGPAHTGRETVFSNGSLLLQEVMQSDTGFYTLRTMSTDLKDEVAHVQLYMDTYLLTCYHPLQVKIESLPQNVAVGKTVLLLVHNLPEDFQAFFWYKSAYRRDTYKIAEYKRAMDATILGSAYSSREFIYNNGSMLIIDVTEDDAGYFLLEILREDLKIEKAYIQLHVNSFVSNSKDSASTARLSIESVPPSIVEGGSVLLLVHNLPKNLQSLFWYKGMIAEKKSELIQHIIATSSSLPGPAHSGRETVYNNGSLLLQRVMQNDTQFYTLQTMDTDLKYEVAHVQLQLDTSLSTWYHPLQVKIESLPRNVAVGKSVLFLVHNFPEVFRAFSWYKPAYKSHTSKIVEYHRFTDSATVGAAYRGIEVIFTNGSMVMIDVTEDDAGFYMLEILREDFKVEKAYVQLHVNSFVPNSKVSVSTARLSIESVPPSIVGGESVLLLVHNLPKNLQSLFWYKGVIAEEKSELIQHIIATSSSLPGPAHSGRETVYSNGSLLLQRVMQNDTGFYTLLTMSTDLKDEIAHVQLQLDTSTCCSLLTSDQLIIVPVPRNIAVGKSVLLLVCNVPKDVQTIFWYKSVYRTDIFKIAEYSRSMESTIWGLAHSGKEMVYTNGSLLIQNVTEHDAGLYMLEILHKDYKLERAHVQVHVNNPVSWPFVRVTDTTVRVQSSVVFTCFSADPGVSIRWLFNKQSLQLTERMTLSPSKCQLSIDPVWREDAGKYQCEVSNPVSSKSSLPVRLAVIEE
Experimental: The affinity of the antibodies to monkey CEACAM5, monkey CEACAM6, and mouse CEACAM5 proteins was determined by ELISA. The plates encapsulated with […] proteins were incubated at 4° C. overnight, and the antibodies to be detected were added to 96-well ELISA plates after being blocked with 2% PBS-BSA and incubated at 37° C. for 1 h. After washing 3 times with PBS containing 0.05% Tween, the absorbance value of each well was read at wavelength 450 nm with the antibody to be detected as the primary antibody and Goat anti-mouse IgG-FC-HRP as the secondary antibody, and the absorbance value of each well was read at wavelength 450 nm after the TMB color development. The specific binding to CEACAM5 and CEACAM6 of mouse and monkey was detected by Elisa method.

[7] = target: T4, CEACAM6 on the surface of the tumor …; assay: flow cytometry on HPAFII cells (Mean-FITC); the cells carry CEACAM5 and CEACAM6, signal not divided between the two; remark: listed apart in the source
Experimental: as §3, §4

[8] = target: T1, human CEACAM5-his (ACRO CE5-H5226); assay: ELISA on coated human CEACAM5, OD450; remark: listed apart in the source
Summary of the method: as §2

[9] = target: T1, human CEACAM5-his (ACRO CE5-H5226); assay: SPR (Biacore), antibody captured on CM5 chip, antigen as analyte, 1:1 model
Experimental: The CM5 sensor chip was activated at a flow rate of 10 μL/min for 420 seconds. The channel was then injected with 30 μg/mL of anti-rat Fc IgG in 10 mM NaAc (pH 4.5) at a flow rate of 10 μL/min. The chip was inactivated with 1 M ethanolamine-hydrochloric acid (GE) for 420 seconds at a flow rate of 10 μL/min.
Candidate antibodies in running buffer 1×HBS-EP+ (10 mM HEPES, 150 mM NaCl, 3 mM EDTA, 0.05% Tween 20, pH 7.4) were captured onto Fc2 with anti-rat Fc IgG at a flow rate of 10 μL/min. The 10 nM human CEACAM5-his protein or CEACAM-6-his or CEACAM6 (AB)-his protein and running buffer were sequentially injected into Fc1-Fc2 at a flow rate of […], bound for 180 seconds, and then dissociated for 3600 seconds. 10 mM glycine (pH 1.5) was injected as regeneration buffer after each dissociation.
Result plots for the reference channel Fc1 and the buffer channel were subtracted from the test result plots. The experimental data fit the 1:1 binding model. The molecular weight of 110 KDa was used to calculate the molar concentration of CEACAM5 protein, 55 KDa for human CEACAM6-his, and 55 KDa for human CEACAM6 (AB)-his.

[10] = target: T3, CEACAM5 on the surface of the tumor …; assay: flow cytometry on HPAFII cells (Mean-FITC); the cells carry CEACAM5 and CEACAM6, signal not divided between the two; remark: listed apart in the source
Experimental: as §3, §4

[11] = target: T3, CEACAM5 on the surface of the tumor …; assay: as above; remark: listed apart in the source
Experimental: as §3, §4

[12] = target: T3, CEACAM5 on the surface of the tumor …; assay: as above; remark: listed apart in the source
Experimental: as §3
After 1 h, PBS was added to wash twice. […] After the supernatant was discarded, 120 μL of PBS was added to resuspend and sequentially flow cytometry was performed to detect the mean fluorescence intensity. […]

EC50 (read off the curve) [1]: ~0.01 µg/mL | EC50 (read off the curve) [2]: ~0.02 µg/mL | EC50 (read off the curve) [3]: ~2 nM | EC50 (read off the curve) [4]: ~2 nM
B1: Antibody 8 (antibody, V domains shown)
VH: EVQLRQSGPELVRPGASMKISCKASGYSFTAYTMTWVKQSHGKILEWIGLIAPYHGGTVYNQKFKGKATLTVDKSSSTAYMELLSLTSEDSAIYYCAGGASSGFVTWFAYWGQGTLVTVSA
VL: DIQMTQSPASLSASVGETVTITCGASENIYGALNWYQRKQGKSPQVLIYGATNLADGTSSRFSGSGSGRQYSLKINSLHPDDVATYYCQNVLSTPYTFGGGTKLEIK
notes: Mouse-derived hybridoma antibody; also called mouse-derived antibody 8

EC50 (read off the curve) [1]: ~0.04 µg/mL | binding result [5]: binds | OD [6]: 0.16 OD | binding result [7]: binds
B2: Antibody 1 (antibody, V domains shown)
VH: QVQLKQSGAELVRPGASVKLSCKTSGYIFTSYWIHWVKQRSGQGLEWIARIYPGTGSTYYNEKFKGKATLTADKSSSTAYMQLSSLKSEDSAVYFCARSGFPLTTVPLDYWGQGTTLTVSS
VL: DVQITQSPSYLAASPGETITINCRASKSISKYLAWYQEKPGKTNKLLIYSGSTLQSGIPSRFSGSGSGTDFTLTISSLEPEDFAMYYCQQHNEYPFTFGSGTKLEIK
notes: Mouse-derived hybridoma antibody; also called mouse-derived antibody 1

binding result [5]: binds | binding result [8]: binds
B3: Antibody 14 (antibody, V domains shown)
VH: EVQLVETGGGLVQPKGSLKLSCAASGFSFNTNAMNWVRQAPGKGLEWVARIRSKSNNYATYYADSVKDRFTISRDDSQSMLYLQMNNLKTEDTAMYYCVSFLSLMDYWGQGTSVTVSS
VL: QIVLTQSPAIMSASPGEKVTMTCSASSSISYMHWYQQKPGTSPKRWIYDTSKLASGVPARFSGSGSGTSYSLTISSMEAEDAATYYCHQRSSYPWTFGGGTKLEIK
notes: Mouse-derived hybridoma antibody; also called mouse-derived antibody 14

Kd [9]: 5.05 nM | EC50 (read off the curve) [1]: ~0.004 µg/mL | EC50 (read off the curve) [3]: ~3 nM | EC50 (read off the curve) [10]: ~2 nM | EC50 (read off the curve) [11]: ~3 nM | EC50 (read off the curve) [8]: ~0.004 µg/mL | EC50 (read off the curve) [12]: ~0.6 µg/mL
B4: NEO-201 antibody (msIgG2a subtype) (antibody, V domains shown)
VH: QVQLVQSGAEVKKPGASVKVSCKASGYTFTDYAMHWVRQAPGQRLEWMGLISTYSGDTKYNQNFQGRVTMTVDKSASTAYMELSSLRSEDTAVYYCARGDYSGSRYWFAYWGQGTLVTVSS
VL: DIQMTQSPSSLSASVGDRVTITCQASENIYGALNWYQRKPGKSPKLLIYGASNLATGMPSRFSGSGSGTDYTFTISSLQPEDIATYYCQQVLSSPYTFGGGTKLEIKR
